Values quoted from earlier work as cited in patent US20070032474A1, “Use of a compound of formula 1 for making a pharmaceutical composition” (priority 2003, published 2007).

Biological target: PKBbeta (Homo sapiens, UniProt P31751)
Details: background, reference (5); read-out: AC50 (activation of PKBbeta)

Sequence of PKBbeta (P31751 146-460 limits assumed, species assumed): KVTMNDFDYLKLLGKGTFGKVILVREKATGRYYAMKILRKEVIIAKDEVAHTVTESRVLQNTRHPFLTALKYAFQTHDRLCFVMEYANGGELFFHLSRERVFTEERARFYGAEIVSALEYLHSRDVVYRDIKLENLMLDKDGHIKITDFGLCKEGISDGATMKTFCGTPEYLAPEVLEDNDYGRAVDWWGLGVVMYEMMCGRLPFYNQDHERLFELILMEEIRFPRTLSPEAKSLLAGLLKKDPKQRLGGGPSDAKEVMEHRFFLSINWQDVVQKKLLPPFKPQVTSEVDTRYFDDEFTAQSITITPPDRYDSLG

polypeptide NH2-REPRILSEEEQEMFRDFDYIADW-COOH comprising a hydrophobic motif; activates AGC kinases (H-REPRILSEEEQEMFRDFDYIADW-OH) [PIFtide]
AC50: 5 µM
